# Reference: paper PMC2903050 (Journal of molecular biology, 2010)
# What was measured:
# [1] = target: T1, botulinum neurotoxin serotype A light chain residues 1-448 (Clostridium botulinum, BoNT/A1 …, UniProt P0DPI0); experiment: flow cytometry on cells
# [2] = target: truncated BoNT/A Lc containing residues 1-425 (Clostridium botulinum, UniProt P0DPI0); experiment: […]
# [3] = target: T1, botulinum neurotoxin serotype A light …; experiment: KinExA
# Target sequence in this assay (P0DPI0 1-448): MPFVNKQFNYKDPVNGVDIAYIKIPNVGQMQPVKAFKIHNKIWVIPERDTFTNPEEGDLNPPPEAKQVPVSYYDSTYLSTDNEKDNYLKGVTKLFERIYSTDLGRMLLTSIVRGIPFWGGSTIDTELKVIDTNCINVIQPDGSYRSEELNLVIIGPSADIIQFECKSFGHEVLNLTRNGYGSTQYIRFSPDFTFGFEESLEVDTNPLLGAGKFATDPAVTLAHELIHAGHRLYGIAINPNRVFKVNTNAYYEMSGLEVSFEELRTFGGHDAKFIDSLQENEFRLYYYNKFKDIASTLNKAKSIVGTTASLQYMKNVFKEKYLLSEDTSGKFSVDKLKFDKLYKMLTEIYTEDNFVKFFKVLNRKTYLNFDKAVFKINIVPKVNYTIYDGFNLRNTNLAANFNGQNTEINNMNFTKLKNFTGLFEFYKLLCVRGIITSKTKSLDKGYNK
# Chain of truncated BoNT/A Lc containing residues 1-425 (P0DPI0 1-425): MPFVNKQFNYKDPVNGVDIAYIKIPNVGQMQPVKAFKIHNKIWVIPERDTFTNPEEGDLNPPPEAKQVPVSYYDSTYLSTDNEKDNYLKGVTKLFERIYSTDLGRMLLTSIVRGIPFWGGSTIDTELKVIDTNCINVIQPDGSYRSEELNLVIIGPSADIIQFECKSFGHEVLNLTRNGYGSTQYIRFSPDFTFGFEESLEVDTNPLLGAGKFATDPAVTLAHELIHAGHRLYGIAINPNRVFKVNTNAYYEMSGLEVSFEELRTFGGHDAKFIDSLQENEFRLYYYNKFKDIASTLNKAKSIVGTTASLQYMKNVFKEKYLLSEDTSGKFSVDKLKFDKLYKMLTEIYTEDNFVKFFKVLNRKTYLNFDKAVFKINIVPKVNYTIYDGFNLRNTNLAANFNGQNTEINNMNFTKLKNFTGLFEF
binder,measurement,setting,value
"Aa1 VHH, yeast displayed (VHH) VHH: AVQLVDSGGGTLQAGKSLRLSCAISGLAFDGGAMGSEHRLTAGAMGWFRQAPGKDREFVAAISPRTDETYYAESLEGRFSVSRDAAATMVFLQADNVRLDDTASYYCAADEDVTPRVMGVIPHADHWGQGTLVTVSS",Kd,[1],30 pM
"Aa1 VHH, for crystal growing (VHH) VHH: AVQLVDSGGGTLQAGKSLRLSCAISGLAFDGGAMGSEHRLTAGAMGWFRQAPGKDREFVAAISPRTDETYYAESLEGRFSVSRDAAATMVFLQADNVRLDDTASYYCAADEDVTPRVMGVIPHADHWGQGTLVTVSS",stoichiometry N,[2],1
"Aa1 VHH, purified (VHH) VHH: AVQLVDSGGGTLQAGKSLRLSCAISGLAFDGGAMGSEHRLTAGAMGWFRQAPGKDREFVAAISPRTDETYYAESLEGRFSVSRDAAATMVFLQADNVRLDDTASYYCAADEDVTPRVMGVIPHADHWGQGTLVTVSS",Kd,[3],147 pM
same,koff,[3],0.00666 s⁻¹
same,kon,[3],4.39e+07 M⁻¹ s⁻¹
